The values that follow come from paper PMC5029526.

The target of the experiment is HdaB-dsA (donor strand complemented HdaB: HdaB residues 1-119, 14-residue linker, HdaA residues 1-10) (Escherichia coli (enteroaggregative, EAEC)). Description: SEC; Superdex-75 gel filtration in 50 mM NaOAc pH 5.0, 200 mM NaCl, last step of purification after refolding; monomer (17.5 kDa) and dimer (35 kDa) peaks.

Consider “HdaB-dsA (donor strand complemented HdaB: HdaB residues 1-119, 14-residue linker, HdaA residues 1-10)”, for which the stoichiometry N worked out at 2.

As a reminder, the stoichiometry N is a count of units in the complex or per binding partner.
